Target: PD-L1 on cells (cancer cell lines expressing PD-L1; PD-L1+ aAPC/CHO-K1 cells) (human) (UniProt Q9NZQ7)
Assay: cell-based or functional assay

PD-L1 on cells (cancer cell lines expressing PD-L1; PD-L1+ aAPC/CHO-K1 cells) (human), sequence (Q9NZQ7 19-290): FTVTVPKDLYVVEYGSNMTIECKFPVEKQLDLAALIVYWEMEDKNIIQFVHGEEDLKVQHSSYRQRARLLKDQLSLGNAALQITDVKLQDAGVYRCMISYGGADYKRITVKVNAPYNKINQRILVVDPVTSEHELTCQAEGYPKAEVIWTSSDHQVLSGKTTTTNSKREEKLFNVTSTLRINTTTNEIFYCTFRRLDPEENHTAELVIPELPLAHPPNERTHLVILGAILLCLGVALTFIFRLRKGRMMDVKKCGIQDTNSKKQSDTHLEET

Atezolizumab - MP-PEG8-VKG-Camptothecin (antibody)
> 3000 ng/mL: x50 (50% reduction in viability, CellTiter-Glo, 96 h) on 786-O cells | x50 (50% reduction in viability, CellTiter-Glo, 96 h) on BXPC3 cells | x50 (50% reduction in viability, CellTiter-Glo, 96 h) on KARPAS 299 cells | x50 (50% reduction in viability, CellTiter-Glo, 96 h) on L540CY cells | x50 (50% reduction in viability, CellTiter-Glo, 96 h) on MDA-MB-231 cells

Atezolizumab - vc-MMAE (antibody)
> 3000 ng/mL: x50 (50% reduction in viability, CellTiter-Glo, 96 h) on 786-O cells | x50 (50% reduction in viability, CellTiter-Glo, 96 h) on BXPC3 cells | x50 (50% reduction in viability, CellTiter-Glo, 96 h) on KARPAS 299 cells | x50 (50% reduction in viability, CellTiter-Glo, 96 h) on L540CY cells | x50 (50% reduction in viability, CellTiter-Glo, 96 h) on MDA-MB-231 cells

From US20210101982A1
